System: MS2 coat protein
Assay: apparent KD of MS2 coat protein; designed switch direction (-1 OFF switch, 1 ON switch): -1; higher = weaker reporter binding
Summary of the method: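 Transcription of designed RNA switches on Illumina chips was done by stalled E. coli RNA polymerase. SNAP-549-labelled MS2 coat protein was then titrated in doubling steps from 0.7 or 1.5 nM to 3 µM, with steps of 0.8–1.5 h at the lowest and 10–20 min at the highest concentration. The per-design median over clusters of curve-fitted normalised fluorescence is reported as apparent KD.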

[1] = Eterna round: R95, input ligand: FMN 200 uM
[2] = Eterna round: R95, input ligand: microRNA oligo, concentration not stated
[3] = Eterna round: R95, input ligand: none
[4] = input ligand: microRNA oligo, concentration not stated

Sequence | apparent KD of MS2 coat protein (input ligand: FMN 200 uM) [nM] | apparent KD of MS2 coat protein (input ligand: none) [nM] | apparent KD of MS2 coat protein [1] [nM] | apparent KD of MS2 coat protein [2] [nM] | apparent KD of MS2 coat protein [3] [nM] | apparent KD of MS2 coat protein [4] [nM]
GUUAACGUAGGAUAUUAGUACAUACACAUGAGGAUCACCCAUGUUUAGUGGGUCUAAGAAUAAGAAGGGCGAAGAA [EX5 #25] (Eterna round: R97, puzzle: Exclusion 5) | 117 | 130 |  |  |  | 
UCAGCUUGUGUCAGGAUAUCCAGUCCGACGGGAGAGGAGAAGGGACAUGAGGAUCACCCAUGUAGGCGCCCUAC [Soerrecege] (Eterna round: R97, puzzle: Brourd's mod of Exclusion 4) | 63.8 | 461 |  |  |  | 
UAAAAGGAUGUCAGGAUAUGCGCUUGGGAUCAAGAGCAGAAGGGACAUGAGGAUCACCCAUGUAACGGUGCGAA [Oraninus] (puzzle: Brourd's mod of Exclusion 4) |  |  | 36.4 | 33.9 | 44.5 | 
GCAUGCUAUGUCAGGAUAUACCUCUGGAUACAUAGGUAGAAGGGACAUGAGGAUCACCCAUGUCCUCAUCAUGC [Fiskers BMX 4 - 25] (puzzle: Brourd's mod of Exclusion 4) |  |  |  | 13.5 |  | 
CCGAAUAAGUAGGAUAUCGUAUCGGAAACGAUACGAGAAGGGCUAACAUGAGGAUCACCCAUGUUCCUUAACGG [Fiskers Ex 6 - 16] (puzzle: Exclusion 6) |  |  | 20 | 16.4 | 18.7 | 
AAAAAACAAGGAUAUACAAAAAAAAAAAGUGAAAAAAAACCACAUGAGGAUCACCCAUGUAGAAGGUGUAAAAA [JR_Exclusion2_Sub002] (puzzle: Exclusion 2) |  |  | 21.9 | 37.1 | 51.1 | 
UGAUUGUUUAACAGAUUAUACAUGAGGAUCACCCAUGUAGGUCCUACGUGCACAUUAUGCAGCUCGUCUUAUUCCCA [Sensor-V1 #72] (Eterna round: R97, puzzle: Sensor, turn-off variant 1) | 35.5 | 37.3 |  |  |  | 
AAUUCACAUGAGGAUCACCCAUGUGAGGAUAUGGAUUCGCUGGCCGUAGCCAGUGGAUCCAGAAGGCGCGUGAU [JL-ex1-4.27] (Eterna round: R97, puzzle: Exclusion 1) | 60.5 | 46.8 |  |  |  | 
UCUGGAGCAGGAUAUAUAUGACGUGCUUCGGCACGAAGGUCACAUGAGGAUCACCCAUGUAGAAGGGCUCCAGA [E2/9-D2] (Eterna round: R97, puzzle: Exclusion 2) | 344 | 43.6 |  |  |  | 
AAAUAACAAGCAAUAAACCACAUGAGGAUCACCCAUGUAAAGGGUGAAUCGUCCACCCAAAAAAAAAAAAAAAAAUA [Mat - Sensor v2 - Eli mod - 147] (Eterna round: R96, puzzle: Sensor v2, turn-off variant) | 43.3 | 52.3 |  |  |  | 178
UCCCAGCUAGGAUAUACAUGAGGAUCACCCAUGUCGAUCCACGGCACCCGAGUAUUGAGUAGAAGGAGUCAGGA [Eternabot (L2) Solution 69] (Eterna round: R97, puzzle: Exclusion 3) | 25.1 | 23.1 |  |  |  | 
UACAUGAGGAUCACCCAUGUUUUGUCGUGUAUGGUAUUUAUCUAGGAUAUCAUUCUAUUUAUUUAUGAGAAGGAGAAUAUUAAU [JMF's solution 98] (Eterna round: R96, puzzle: Exclusion NG 3) | 33.4 | 29.7 |  |  |  | 23.5
AAAUAGUGAGGAUAUUAGUUGUACGUCAAUAGACGUAUAAGUGAGAAGGCACAUGAGGAUCACCCAUGUUCCAG [Omei Ex4 Mod of Mat's R95 mod of Omei v9] (Eterna round: R97, puzzle: Exclusion 4) | 48.4 | 22.2 |  |  |  | 
CAUGCACAUGAGGAUCACCCAUGUCAGGAUAUCUAUCAUAGCAUCGAAAGAUGCGGGUAGAGAAGGGACAACCC [ChP Ext 10-04-2015 #10] (puzzle: Exclusion 1) |  |  |  | 15.5 |  | 
ACAAGCUUUUAGAUUCUUAACAUGAGGAUCACCCAUGUGCUCGUCUUAUUGGGCCCGGGCCCGCCGGGCCCGGGCCC (Eterna round: R97, puzzle: Sensor, turn-off variant 1) | 39.2 | 42.6 |  |  |  | 
CUGUGCACGCUGCGAUCCUACAUGAGGAUCACCCAUGUGGUCUGGUGGCGUGGGUCACCGGACUUGGCUCGUCUUGU [salish99_S_TOV1_R5_079] (Eterna round: R97, puzzle: Sensor, turn-off variant 1) | 79 | 90.7 |  |  |  | 
GUUGUUUAUGUAGGAUAUGCCUGGCGUGCCUAUGCAGAAGGACAUGAGGAUCACCCAUGUAUUGCGGUCUGCGUUCAGAUCGCU [salish99_ExNG1_r4_020] (Eterna round: R96, puzzle: Exclusion NG 1) | 23.2 | 22 |  |  |  | 15.8

Sequence | apparent KD of MS2 coat protein (input ligand: FMN 200 uM) [nM] | apparent KD of MS2 coat protein (input ligand: none) [nM] | apparent KD of MS2 coat protein [1] [nM] | apparent KD of MS2 coat protein [2] [nM] | apparent KD of MS2 coat protein [3] [nM] | apparent KD of MS2 coat protein [4] [nM]
CUUCACCCACCAGAGCUCACCCACAUACCUACUCAGGUGACAUGAGGAUCACCCAUGUUUUUUGCCCGUCUUAUCUU [Vexebedi] (puzzle: Sensor v3, turn-off variant 2) |  |  | 28.3 | 216 | 30.4 | 
GUCGUGUUAGGAUAUGGCGGCGGCGGCGAAAGUUGUUGUUGUUAGAAGGAACAUGAGGAUCACCCAUGUAUGAC [-26 -25.5 kcal, A 24%] (Eterna round: R97, puzzle: Exclusion 4) | 104 | 35.3 |  |  |  | 
UACGGUCCUAACAUGAGGAUCACCCAUGUAACAAAAGAAACCUAGGAUAUCCGCGCCGGAAGGAAGGAGAAGGAGGGCGUGGCA [Ededti] (Eterna round: R96, puzzle: Exclusion NG 3) | 50.7 | 51.8 |  |  |  | 34.3
AAGAGCAUCGGAGGAUAUGGAGCUGAAACGGCGCUAGAAGGCCGUGCAGUGUAACAUGAGGAUCACCCAUGUAGGGACCUCUAA [EX ng 1 4] (Eterna round: R96, puzzle: Exclusion NG 1) | 244 | 104 |  |  |  | 82.9
AGGUCACAUGAGGAUCACCCAUGUGAGGAUAUUUACUCAAGAGCUUCGGCUCUCAGGUGAAGAAGGCGCAAUGA [EX1 #54] (Eterna round: R97, puzzle: Exclusion 1) | 27.2 | 30 |  |  |  | 
ACGAUGAUCGAAAAGUGUAAACUAACAUGAGGAUCACCCAUGUAGGAUAUGGCUACGAAAAGUAGUCAGAAGGGCAUGUCAUCA [3 Av mod - 2] (Eterna round: R96, puzzle: Exclusion NG 3) | 24 | 20.3 |  |  |  | 13.2
GUUCGGGCAGGAUAUACAUGAGGAUCACCCAUGUGUGUCCAUACGCGUGAGUCUUCGUGUAGAAGGGUUUGGGC [-30.5, -27.8 kcal, 20% A] (Eterna round: R97, puzzle: Exclusion 3) | 27.3 | 21.1 |  |  |  | 
UAUUCACAUGAGGAUCACCCAUGUCAGGAUAUAGUCGAUAUAUGGAAACAUAUAUCGACUAGAAGGGACUAGCG [Jieuxxlusion 12 - Jieux - Exclusion 1] (Eterna round: R97, puzzle: Exclusion 1) | 64.5 | 47.4 |  |  |  | 
AAAGCUGCAGGAUAUGCAUGUGUGGACAUGAGGAUCACCCAUGUGAGCGUAUCAUGUCGAGCAGAAGGGCAGUAAA [Atquer] (Eterna round: R97, puzzle: Exclusion 5) | 172 | 630 |  |  |  | 
AUGCCGCUAGGAUAUUGCAGCUGAUACAUGAGGAUCACCCAUGUGACUCGCUGGGUAGUGUAAGAAGGAGUGUGCU [Eternabot (L2) Solution 27] (Eterna round: R97, puzzle: Exclusion 5) | 21.3 | 24 |  |  |  | 
AACCCUCGUCAAGGAUAUACAUAGAAAAGCUUGGUAGAAGGUGACAUGAGGAUCACCCAUGUAAAAGGCCUGUCCAUUCAGGCC [Isonce] (Eterna round: R96, puzzle: Exclusion NG 1) | 96.4 | 78.1 |  |  |  | 67.8
GUUUUCAGACGGAGAUCCUACAUGAGGAUCACCCAUGUCUCACAAGCUUUUUGCUCGUCUUAUUCUCCUCUGUUCUC [Elimod 41 - Jieux - Sensor, turn-off variant 1] (Eterna round: R97, puzzle: Sensor, turn-off variant 1) | 23.8 | 26.1 |  |  |  | 
UAAUAAAGGGUAGGAUAUGCCGAACAAACACGAGCAGAAGGACCAAAACACUACUUGAGGAUCACCCAAGUGUCCUUCCGUGGU [Mutated MS2 EX1.6] (Eterna round: R96, puzzle: Exclusion NG 1) | 52.4 | 17.2 |  |  |  | 13.2
GCUAGAGCAGGAUAUUCAAAACCUCACAUGAGGAUCACCCAUGUGGCCGAAAGGCCGGGAGGAGAAGGGCUCUAGC [Mat - Exclusion 5 - Eli mod - D84] (Eterna round: R96, puzzle: Exclusion 5) | 42.4 | 19.4 |  |  |  | 14.3
AAAUACAAGUAAGGAUUCUACAUGAGGAUCACCCAUGUGCUCGUCUUAUAAAGUACUAUCACGAAAGUGAUAGUACA [Sensor 3, v1 - 38] (puzzle: Sensor v3, turn-off variant 1) |  |  | 22 | 190 | 26.2 | 
GUCACAUGGGUGUAGAAUCACAUGAGGAUCACCCAUGUGACUAACAAGCUUUUUGCUCGUCUUAUGUCUAUGUGAAG [Stov1/17-A3] (Eterna round: R97, puzzle: Sensor, turn-off variant 1) | 58.7 | 32.1 |  |  |  | 

Source: the supplement of paper PMC9170038
